In patent US9447157B2, “Nitration shielding peptides and methods of use thereof” (Augusta University Research Institute, Inc., priority 2013, dated 2016):
“Also recorded” adds a separate entry of the source. No end group written: not given here. *: point of attachment. X1 = 3‑carboxy‑2,2,5,5‑tetramethyl‑3‑pyrrolin‑1‑yloxy, CC1(C)C=C(C(=O)*)C(C)(C)N1[O]

Legend:
[1] = test system: human lung microvascular endothelial cells (HLMVEC); assay: Endothelial monolayer resistance (ECIS, TER) in LPS-challenged HLMVEC; type: cell-based; conditions: for Attenuation of LPS-mediated decrease in transendothelial resistance (TER) / barrier disruption: HLMVEC, LPS 1 EU/ml, MnTMPyP 25 μM, ETU 200 μM, 1400W 100 μM
Method: The electrical resistance of the endothelial cell monolayer was measured with the electrical cell impedance sensor (ECIS) technique. In this system, the cells are cultured on gold plated electrodes. The change in resistance across the monolayer is measured through an amplifier attached to the arrays. Each study was performed when the resistance reached a plateau. The data was normalized to the initial voltage and plotted as a normalized resistance.
To examine if protein nitration by peroxynitrite is a contributing factor in endothelial barrier disruption in response to LPS, transendothelial resistance (TER) was measured in HLMVEC in the presence or absence of the peroxynitrite scavenger, MnTmPyp. HLMVEC were challenged with LPS (1 EU/ml) in the presence or absence of the peroxynitrite scavenger, MnTMPyP (25 μM).
To evaluate the role played by NOS in the barrier dysfunction, HLMVEC were exposed to LPS in the presence or absence of ETU (a non-specific NOS inhibitor) or 1400W (to inhibit iNOS). HLMVEC were challenged with LPS (1 EU/ml) in the presence or absence of the general NOS inhibitor, ETU (200 μM) or the iNOS specific inhibitor, 1400W (100 μM). The LPS-mediated decrease in TER was attenuated in the presence of ETU, but not 1400W (FIG. 1B). The important role of eNOS was then confirmed using a siRNA approach. HLMVEC were transiently transfected with a siRNA against eNOS or a scrambled control siRNA. After 48 h, there was a significant knockdown of eNOS protein levels (50%), as determined by Western blotting. Reducing eNOS protein levels preserved HLMVEC barrier function when challenged with LPS (FIG. 1C).

Recombinant human PKG-Iα = molecular target: T1, Recombinant human PKG-Iα (Homo sapiens, UniProt Q13976); assay: PKG-Iα activity assay with SIN-1 and shielding peptide; type: biochemical
T1 sequence (Q13976 2-671): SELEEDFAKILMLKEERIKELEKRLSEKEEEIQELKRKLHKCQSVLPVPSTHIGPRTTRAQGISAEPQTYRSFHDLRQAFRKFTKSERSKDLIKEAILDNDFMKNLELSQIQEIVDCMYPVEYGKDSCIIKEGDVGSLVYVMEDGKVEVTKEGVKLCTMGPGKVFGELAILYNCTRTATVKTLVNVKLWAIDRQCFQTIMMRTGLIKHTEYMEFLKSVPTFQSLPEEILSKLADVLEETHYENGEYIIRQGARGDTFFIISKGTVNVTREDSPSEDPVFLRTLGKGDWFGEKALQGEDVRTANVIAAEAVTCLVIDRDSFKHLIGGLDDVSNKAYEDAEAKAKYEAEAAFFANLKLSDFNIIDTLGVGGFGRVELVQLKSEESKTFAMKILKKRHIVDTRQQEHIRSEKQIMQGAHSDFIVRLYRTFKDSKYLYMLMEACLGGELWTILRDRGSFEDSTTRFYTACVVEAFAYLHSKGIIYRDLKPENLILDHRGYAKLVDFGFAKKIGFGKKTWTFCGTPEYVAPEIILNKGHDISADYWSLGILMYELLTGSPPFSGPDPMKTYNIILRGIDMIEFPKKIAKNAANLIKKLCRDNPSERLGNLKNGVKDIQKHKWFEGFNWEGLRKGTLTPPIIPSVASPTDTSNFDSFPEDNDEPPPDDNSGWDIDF
Method: A PKG-Iα activity assay was carried out using HLMVEC. Recombinant human PKG-Iα18 was exposed to the peroxynitrite generator, SIN-1 (200 μM, 10 min) with increasing concentrations of the shielding peptide (0-10 μg).

HLMVEC = assay: Total protein nitration (3-NT/β-actin) in LPS-treated HLMVEC; type: cell-based, human; conditions: peptide 100 ng/ml 30 min, then LPS 1 EU/ml
Excerpt: Cell extracts were separated on 4-20% gels and electrophoretically transferred to PVDF membrane (Bio-Rad), then blocked with 5% nonfat dry milk in Tris-buffered saline. The membranes were probed with antibodies to RhoA (Cell Signaling), eNOS (BD), iNOS (Cell Signaling), or 3-Nitrotyrosine (Calbiochem). Reactive bands were visualized using chemi-luminescence (Pierce) on a Kodak 440CF image station. Band intensity was quantified using Kodak 1D image processing software. Protein loading was normalized by re-probing with mouse anti-β-actin.

RhoA [2] = molecular target: T2, RhoA (Homo sapiens, UniProt P61586); assay: Biotin pull down assay of peptide binding to RhoA; parameters: polyHis (6His); made in house; host or cells: Escherichia coli BL21; conditions: peptide 100 ng/ml, recombinant human RhoA 0.1 mg
Method: To evaluate the ability of each peptide to bind to RhoA each peptide (100 ng/ml) was mixed with recombinant human RhoA (0.1 mg) for the biotin pull down assay.

RhoA [3] = molecular target: T3, RhoA (Mus musculus, UniProt Q9QUI0); assay: RhoA activity, nitration and protein in lungs of LPS treated mice; type: in vivo
T3 construct: from tissue; host or cells: mouse lung (male C57Bl/6)
Method: The Committee on Animal Research at Georgia Regents University approved all animal protocols and procedures. Stock solutions of Escherichia coli LPS (0111:B4) were prepared in saline. […] Mice were examined 24 h after LPS treatment. At the end of the treatment lungs were flushed with 3 ml of ice-cold PBS (5 mM EDTA), excised, dipped in saline and blotted dry. A portion of the lung was quickly snap-frozen in liquid nitrogen, crushed to powder in a pre-chilled mortar and stored at -80° C. The remaining lung tissue was stored at -80° C. […] After 24 h, mice were sacrificed and lung tissue was obtained to determine RhoA activity and RhoA nitration, LPS induced RhoA activation in the mouse lung as in HLMVEC (FIG. 7A). […] Total RhoA protein levels and basal RhoA nitration were measured. […] Likewise, basal RhoA nitration levels (FIG. 7D) were unchanged.

RhoA [4] = molecular target: T2, RhoA; assay: RhoA activity, Rhotekin RBD pull-down, in LPS-treated HLMVEC; type: cell-based; parameters: endogenous in cells; host or cells: HLMVEC (human lung microvascular endothelial cells); conditions: MnTMPyP 25 μM 30 min pre-treatment, LPS 1 EU/ml 4 h
Method: RhoA activity levels were measured using the Rhotekin Rho Binding Domain (RBD) pull-down assay. Briefly, 2×10^6 cells were seeded in 10 cm dishes and incubated overnight in DMEM with 10% FBS and 5% antibiotics. The cells were then pretreated with the peroxynitrite scavenger, MynTMPyp (25 μM), for 30 min. The cells were treated with LPS (1 EU/ml) for 4 h. The level of active RhoA pulled down by the assay was measured by Western blot analysis (see above).

RhoA [5] = molecular target: T2, RhoA; assay: RhoA nitration, immunoprecipitation and 3-NT blot, in LPS-treated HLMVEC; type: cell-based; parameters: endogenous in cells; host or cells: HLMVEC (human lung microvascular endothelial cells); conditions: MnTMPyP, LPS 1 EU/ml 4 h
Excerpt: HLMVEC were lysed and centrifuged at 6,000×g and the supernatant collected as previously described (Sud, N., et al., Am. J. Physiol. Lung Cell Mol. Physiol. 293, L1444-1453 (2007); Sharma, S., et al., Am. J. Physiol. Lung Cell Mol. Physiol. 294, L46-56 (2008)). Cell extracts were separated on 4-20% gels and electrophoretically transferred to PVDF membrane (Bio-Rad), then blocked with 5% nonfat dry milk in Tris-buffered saline. The membranes were probed with antibodies to RhoA (Cell Signaling), eNOS (BD), iNOS (Cell Signaling), or 3-Nitrotyrosine (Calbiochem). Reactive bands were visualized using chemi-luminescence (Pierce) on a Kodak 440CF image station. Band intensity was quantified using Kodak 1D image processing software. Protein loading was normalized by re-probing with mouse anti-β-actin.
HLMVEC were homogenized in IP buffer (25 mM Hepes, pH 7.5, 150 mM NaCl, 1% NP-40, 10 mM MgCl2, 1 mM EDTA, 2% glycerol supplemented with protease inhibitors). To precipitate the bound protein, 10 μl of a protein A/G agarose suspension (EMD/Calbiochem) was added for 2 h at 4° C. The samples were then centrifuged at 14,000 rpm for 5 min, the supernatant removed, and the beads washed 3× with IP buffer. Twenty μl of 2× Laemmli buffer was added, the samples were boiled for 5 min, and analyzed as described above. Immunoprecipitation efficiency was normalized by re-probing with RhoA.

RhoA [6] = molecular target: T2, RhoA; assay: Stopped-flow kinetic analysis of mant-GDP/mant-GTP binding to RhoA; parameters: polyHis (6His); made in house; host or cells: Escherichia coli BL21; Binding constant of GDP to RhoA / GTP binding constant of RhoA: unit not given here; conditions: stop-flow, RhoA with or without peroxynitrite (100 μM, 30 min); for Binding constant of GDP to RhoA: mant-GDP; for GTP binding constant of RhoA: mant-GTP
Method: RhoA was treated with authentic peroxynitrite (500 μM, 30 min) to induce tyrosine nitration in buffered solution. For kinetic analyses, 2 μM of either mart-GTP or -GDP was mixed with RhoA (0.1 μM) in a stopped-flow instrument (SX-20, […]). Increases in fluorescent intensity mant-nucleotide binding to RhoA were then measured using excitation 350 nm and cutoff filter 395 nm for 0.2-1 second. Acquired kinetic curves for 3-5 experiments were averaged and fitted using the Pro-kineticist software to determine observed binding constants.
To test the validity of the MD data kinetic studies were performed. His-tagged human RhoA construct was expressed in the Escherichia con BL21 strain. First, the bacterial lysate was purified by 6His-tag affinity on a Ni-NTA column. Second, the proteins in the elution fraction from the affinity purification were separated by size-exclusion chromatography (FIG. 11). The fraction containing RhoA was identified both by Coomassie blue staining and Western blot analysis. The recombinant purified RhoA was subjected to rapid flow kinetics to evaluate GDP and GTP binding using fluorescently labeled guanine nucleotides. Peroxynitrite decreases GDP binding to purified RhoA. Human recombinant RhoA was exposed to authentic peroxynitrite (100 μM, 30 min) on ice. The kinetics of binding fluorescently labeled GDP (FIG. 12A) or GTP (FIG. 12B) to RhoA was then performed using stop-flow analysis. Three measurements were averaged and fitted with bimolecular reaction equation. […] However, nitration of RhoA had no effect on the GTP binding constant ([…]).

T2 sequence (P61586 whole entry): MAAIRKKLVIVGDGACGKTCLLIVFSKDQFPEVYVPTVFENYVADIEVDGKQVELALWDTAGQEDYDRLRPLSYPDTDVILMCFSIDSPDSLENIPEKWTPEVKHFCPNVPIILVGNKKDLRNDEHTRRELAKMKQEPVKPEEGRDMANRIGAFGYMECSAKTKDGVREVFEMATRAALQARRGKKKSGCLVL
T3 sequence (Q9QUI0 whole entry): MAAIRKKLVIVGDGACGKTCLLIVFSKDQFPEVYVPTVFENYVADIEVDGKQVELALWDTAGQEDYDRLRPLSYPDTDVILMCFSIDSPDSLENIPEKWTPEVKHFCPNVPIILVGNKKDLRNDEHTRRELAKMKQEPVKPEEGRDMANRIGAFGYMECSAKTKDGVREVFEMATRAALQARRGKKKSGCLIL

Molecule: CCSC(=N)N [ETU]
- Attenuation of LPS-mediated decrease in transendothelial resistance (TER) / barrier disruption [1]: attenuated

Molecule: GALRQKNVK(X)-amide (SEQ ID NO:29), where X is 3-carboxy-2,2,5,5-tetramethyl-3-pyrrolin-1-yloxy (nitroxide) (GALRQKNVK(X1)-NH2; N-terminus assumed; SMILES CC(C)C[C@H](NC(=O)[C@H](C)NC(=O)CN)C(=O)N[C@@H](CCCNC(=N)N)C(=O)N[C@@H](CCC(N)=O)C(=O)N[C@@H](CCCCN)C(=O)N[C@@H](CC(N)=O)C(=O)N[C@H](C(=O)N[C@@H](CCCCNC(=O)C1=CC(C)(C)N([O])C1(C)C)C(N)=O)C(C)C; listed as Homo sapiens) [shielding peptide]
- PKG-Iα activity against peroxynitrite (Recombinant human PKG-Iα; SIN-1 200 μM, 10 min, shielding peptide 0-10 μg): preserves; also recorded: dose-dependently preserved
- Physiologic PKG-Iα activity (Recombinant human PKG-Iα; in vitro): did not alter
- Barrier function when challenged with LPS ([1]; in vitro, LPS challenge): preserved

Molecule: HRKKRRQRRRQFPVFVPTVF (SEQ ID NO:35) (listed as Homo sapiens) [NipR1F, control peptide in which Y34 was substituted with a phenylalanine residue]
- Increase in total protein nitration induced by LPS (HLMVEC): unaffected
- Interaction between RhoA and biotinylated peptide (RhoA [2]): strong interaction
- Basal RhoA nitration levels in mouse lung (RhoA [3]; peptide alone, no LPS): unchanged
- Total RhoA protein levels in mouse lung (RhoA [3]; peptide i.p. 0.1 mg/kg, with or without LPS): Neither peptide nor LPS treatment altered

Molecule: MnTMPyP
- Attenuation of LPS-induced increase in RhoA activity (RhoA [4]): attenuated
- Attenuation of LPS-mediated decrease in transendothelial resistance (TER) / barrier disruption [1]: significantly attenuated
- Attenuation of LPS-induced RhoA nitration (RhoA [5]): attenuated

Molecule: RhoA+ONOO: human recombinant RhoA exposed to authentic peroxynitrite (nitrated)
- Binding constant of GDP to RhoA (RhoA [6]): 4.03
- GTP binding constant of RhoA (RhoA [6]): 36.2

Molecule: RhoA: His-tagged human recombinant purified RhoA
- Binding constant of GDP to RhoA (RhoA [6]): 19.8
- GTP binding constant of RhoA (RhoA [6]): 38.7
